The chains are these.
T1: human CD11a (human) (UniProt P20701)
T1 sequence (looked up): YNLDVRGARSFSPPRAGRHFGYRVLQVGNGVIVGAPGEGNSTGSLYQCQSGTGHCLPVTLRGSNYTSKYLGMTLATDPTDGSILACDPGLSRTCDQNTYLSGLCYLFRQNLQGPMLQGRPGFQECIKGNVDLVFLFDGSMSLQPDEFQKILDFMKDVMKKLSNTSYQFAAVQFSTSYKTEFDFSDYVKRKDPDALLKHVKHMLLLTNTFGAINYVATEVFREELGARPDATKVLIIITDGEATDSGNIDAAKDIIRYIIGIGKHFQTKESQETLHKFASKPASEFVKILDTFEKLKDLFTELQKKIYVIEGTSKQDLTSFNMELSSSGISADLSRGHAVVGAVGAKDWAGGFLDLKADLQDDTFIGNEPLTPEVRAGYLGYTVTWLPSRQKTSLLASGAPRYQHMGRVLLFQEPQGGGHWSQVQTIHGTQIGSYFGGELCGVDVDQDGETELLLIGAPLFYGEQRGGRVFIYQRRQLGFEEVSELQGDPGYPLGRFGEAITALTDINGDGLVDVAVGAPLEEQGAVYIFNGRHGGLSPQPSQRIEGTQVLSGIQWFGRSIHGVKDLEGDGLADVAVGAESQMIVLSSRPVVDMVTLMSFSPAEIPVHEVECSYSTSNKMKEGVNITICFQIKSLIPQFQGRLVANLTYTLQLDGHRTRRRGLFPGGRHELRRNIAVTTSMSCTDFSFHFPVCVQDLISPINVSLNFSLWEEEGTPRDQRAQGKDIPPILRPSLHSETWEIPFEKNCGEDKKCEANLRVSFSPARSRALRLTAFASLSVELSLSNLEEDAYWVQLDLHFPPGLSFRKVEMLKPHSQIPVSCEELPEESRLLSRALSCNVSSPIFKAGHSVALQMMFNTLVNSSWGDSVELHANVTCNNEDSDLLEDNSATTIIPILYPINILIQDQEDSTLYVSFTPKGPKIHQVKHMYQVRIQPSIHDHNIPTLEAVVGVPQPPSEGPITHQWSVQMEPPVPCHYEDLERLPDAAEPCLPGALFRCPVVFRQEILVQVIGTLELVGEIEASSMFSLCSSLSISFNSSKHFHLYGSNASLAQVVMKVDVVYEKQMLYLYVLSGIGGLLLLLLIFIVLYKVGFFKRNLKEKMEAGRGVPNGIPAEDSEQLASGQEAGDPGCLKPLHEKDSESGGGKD

T2: rhesus CD11a (rhesus) (UniProt H9Z8N3)
T2 sequence: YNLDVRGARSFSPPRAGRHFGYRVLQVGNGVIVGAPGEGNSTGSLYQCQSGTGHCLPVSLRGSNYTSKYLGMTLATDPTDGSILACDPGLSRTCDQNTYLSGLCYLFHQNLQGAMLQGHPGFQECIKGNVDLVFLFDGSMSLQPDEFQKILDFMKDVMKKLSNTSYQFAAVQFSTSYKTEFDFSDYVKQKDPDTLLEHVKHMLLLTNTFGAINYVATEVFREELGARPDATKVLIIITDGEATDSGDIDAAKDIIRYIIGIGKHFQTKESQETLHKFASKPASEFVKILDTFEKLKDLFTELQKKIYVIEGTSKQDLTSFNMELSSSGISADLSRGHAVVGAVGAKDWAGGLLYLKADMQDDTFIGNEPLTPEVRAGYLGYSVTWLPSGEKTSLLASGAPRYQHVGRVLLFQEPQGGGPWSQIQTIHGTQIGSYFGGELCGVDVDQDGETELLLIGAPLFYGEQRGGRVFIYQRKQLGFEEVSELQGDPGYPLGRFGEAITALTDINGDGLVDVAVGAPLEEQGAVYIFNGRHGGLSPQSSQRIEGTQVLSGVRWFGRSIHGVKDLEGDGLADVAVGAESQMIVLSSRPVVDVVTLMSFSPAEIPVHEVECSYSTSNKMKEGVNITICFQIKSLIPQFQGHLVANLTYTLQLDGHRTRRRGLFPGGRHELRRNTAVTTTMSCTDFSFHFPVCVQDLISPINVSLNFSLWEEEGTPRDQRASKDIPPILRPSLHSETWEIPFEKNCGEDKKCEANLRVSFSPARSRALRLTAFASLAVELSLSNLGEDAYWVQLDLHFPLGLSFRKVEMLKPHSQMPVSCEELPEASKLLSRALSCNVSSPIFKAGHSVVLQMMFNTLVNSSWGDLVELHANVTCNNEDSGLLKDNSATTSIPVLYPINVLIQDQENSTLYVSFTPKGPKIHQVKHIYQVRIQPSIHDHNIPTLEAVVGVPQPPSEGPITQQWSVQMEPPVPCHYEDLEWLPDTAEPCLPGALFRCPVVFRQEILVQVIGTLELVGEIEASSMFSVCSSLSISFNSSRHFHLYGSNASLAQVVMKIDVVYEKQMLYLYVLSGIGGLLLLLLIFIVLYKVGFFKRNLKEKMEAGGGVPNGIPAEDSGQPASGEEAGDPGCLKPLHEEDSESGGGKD

B1: L1 variant IgG1 (antibody, V domains shown)
VH: EVQLVESGGGLVQPGGSLRLSCAASGYSFTGHWMNWVRQAPGKGLEWVGMIHPSDSETRYNQKFKDRFTISVDKSKNTLYLQMNSLRAEDTAVYYCARGIYFYGTTYFDYWGQGTLVTVSS
VL: DIQMTQSPSSLSASVGDRVTITCRASAAIAAYLAWYQQKPGKAPKLLIYSGSTLQSGVPSRFSGSGSGTDFTLTISSLQPEDFATYYCQQHNEYPLTFGQGTKVEIKR
B2: H3B variant IgG1 (antibody, V domains shown)
VH: B1 VH with T105A, T106A, Y107A
VL: DIQMTQSPSSLSASVGDRVTITCRASKTISKYLAWYQQKPGKAPKLLIYSGSTLQSGVPSRFSGSGSGTDFTLTISSLQPEDFATYYCQQHNEYPLTFGQGTKVEIK
B3: H2C11 variant IgG1 (antibody, V domains shown)
VH: B1 VH with H52A, S54A, D55S, E57N
VL: B2 VL
B4: TyrH97Ala variant IgG1 (antibody, V domains shown)
VH: B1 VH with Y101A
VL: B2 VL
B5: humanized MHM24 F(ab)-5 (Fab, V domains shown)
VH: B1 VH with Y27F, K76S, N77S
VL: B2 VL with T53S, Q55E
B6: humanized MHM24 F(ab)-3 (Fab, V domains shown)
VH: B1 VH with Y27F, F68A, K74N
VL: B2 VL with T53S, Q55E
B7: H1 variant IgG1 (antibody, V domains shown)
VH: B1 VH with S28A, T30A, H32A
VL: B2 VL
B8: LysH73Ala variant IgG1 (antibody, V domains shown)
VH: B1 VH with K74A
VL: B2 VL
B9: SerH28Ala variant IgG1 (antibody, V domains shown)
VH: B1 VH with S28A
VL: B2 VL
B10: TyrH99Ala variant IgG1 (antibody, V domains shown)
VH: B1 VH with Y103A
VL: B2 VL
B11: SerH55Asn variant IgG1 (antibody, V domains shown)
VH: B1 VH with S56N
VL: B2 VL
B12: L2 variant IgG1 (antibody, V domains shown)
VH: B1 VH
VL: B1 VL with A27K, A28T, A30S, A31K, S50A, S52A, T53A
B13: humanized MHM24 F(ab)-8 (Fab, V domains shown)
VH: B1 VH
VL: B1 VL with A27K, A28T, A30S, A31K
B14: HisH32Ala variant IgG1 (antibody, V domains shown)
VH: B1 VH with H32A
VL: B2 VL
B15: ThrH100bAla variant IgG1 (antibody, V domains shown)
VH: B1 VH with T106A
VL: B2 VL
B16: TyrH100cAla variant IgG1 (antibody, V domains shown)
VH: B1 VH with Y107A
VL: B2 VL
B17: HisH52Ser variant IgG1 (antibody, V domains shown)
VH: B1 VH with H52S
VL: B2 VL
B18: humanized MHM24 F(ab)-4 (Fab, V domains shown)
VH: B1 VH with Y27F, V72R, K74N
VL: B2 VL with T53S, Q55E
B19: TyrL94Ala variant IgG1 (antibody, V domains shown)
VH: B1 VH
VL: B1 VL with A27K, A28T, A30S, A31K, Y94A
B20: AspH54Glu variant IgG1 (antibody, V domains shown)
VH: B1 VH with D55E
VL: B2 VL
B21: ThrH100aAla variant IgG1 (antibody, V domains shown)
VH: B1 VH with T105A
VL: B2 VL
B22: AspH54Ser variant IgG1 (antibody, V domains shown)
VH: B1 VH with D55S
VL: B2 VL
B23: AspH54Lys variant IgG1 (antibody, V domains shown)
VH: B1 VH with D55K
VL: B2 VL
B24: H2C6 variant IgG1 (antibody, V domains shown)
VH: B1 VH with H52A, S54A, D55N, E57Q
VL: B2 VL
B25: H2C14 variant IgG1 (antibody, V domains shown)
VH: B1 VH with H52A, S54A, D55S, E57A
VL: B2 VL
B26: H2C4 variant IgG1 (antibody, V domains shown)
VH: B1 VH with H52A, S54A, D55N, E57A
VL: B2 VL

Numbering of substitutions follows the chain as printed. Names and notes keep the numbering of the source.

In the first test the target is T1, human CD11a (human). Nature of the test: FACScan, Jurkat cells.
B1 yielded a Var.EC50/HuIgG1 EC50 of 1.3. Still for that read-out and setting: then B2, with 34.7; and B3, with 24.9; and B4, with 10.9. Take B5: the EC50 F(ab)/EC50 F(ab)-2 was found to be 0.043 and the fold improvement in binding over F(ab)-2 was 23 fold. The molecule B6 came in with an EC50 F(ab)/EC50 F(ab)-2 of 1.2. B7 gave a Var.EC50/HuIgG1 EC50 of 5.9. Still for that read-out and setting: then B8, with 5.2; and B9, with 6.9.

With B10, the Var.EC50/HuIgG1 EC50 was determined as 1.4. The same measure, in the same setting: the value for B11 was 2.1; that for B12 was 1.1. B13 returned an EC50 F(ab)/EC50 F(ab)-2 of 0.004. In the case of B14, the Var.EC50/HuIgG1 EC50 came out at 2.3. In turn, B15 returned a Var.EC50/HuIgG1 EC50 of 1.4. On to B16, for which the Var.EC50/HuIgG1 EC50 was 7.6.

Consider B17, for which the Var.EC50/HuIgG1 EC50 is 5.

As for B18, the EC50 F(ab)/EC50 F(ab)-2 is 2.9 and the fold reduction in binding against F(ab)-2 turned out to be 3 fold. Turning to B19, the Var.EC50/HuIgG1 EC50 worked out at 11.8. The molecule B20 showed a Variant EC50/HulgG1 EC50 of 16. In the case of B21, the Var.EC50/HuIgG1 EC50 came out at 2.3.

The next test deals with T2, rhesus CD11a (rhesus). Nature of the test: binding to rhesus peripheral blood lymphocytes.
Take B1: the Var.EC50/HuIgG1 EC50 was determined as 1. B22: the Variant EC50/HulgG1 EC50 was determined as 0.9. On the same count and under the same terms, the value for B23 was 3.8.

B24: the Var.EC50/HuIgG1 EC50 came out at 0.21. Same read-out and setting: the value for B25 was 0.021; that for B26 was 0.38.

The values above are taken from patent publication EP1516629B1.
